Substrate in the data set: O=C(O)[C@@H](O)[C@H](O)[C@H](O)[C@@H](O)C(=O)O
The data set is described as follows: purified protein. The conditions noted are these: dehydration, 20 mM HEPES pH 7.9, 5 mM MgCl2, 1 μM enzyme.

This note sets out measurements from publication PMC4081050.

B1: A9CG74 (GalrD-III) (Agrobacterium fabrum str. C58) (protein)
chain: MKIDRMRVFVTRDKDRPRVIVALDTDDGMTGWGECYNHGPDLALPPVLDYLYNFLAGQDPTRVEFLYNLMLQQNRFPPGALGLSAISALDHCLWDLAAKAVGVPVYKLLGGEVRNRIKVYAGVYTAPDAPAARDEFDRLNEGWGFSAFKLSPWRVDIHAHRWGEVVRSSAEYFRTLRETVRADYDIAFDAHAKIFEPSAARQLGNALAPYDPLFYEEPLRPENIEMYGDLKQGLNCTLATGESLYNRNEFLRLLQVKGADIIQPDICVVGGISEMRRIATLAEAHFVSIAPHNPMGPLATAVNVHFCAVQQNFRILEYRLPKGQVYAYGGNDLVKEEDVTRYVVDPYLPRDGYLELRPDRPGWGVEMDEKAMQEDGYVHWQRRVPKRPDGSYAFA
As usually defined, the Km is the concentration of substrate that gives half-maximal velocity. Broadly, the kcat is the number of substrate molecules converted per active site and unit of time at saturation. In general, kcat/Km refers to the turnover number divided by the Michaelis constant. Take B1: the Km was found to be 80 ± 30 µM, the catalytic constant (kcat) came to 0.12 ± 0.05 s⁻¹ and the kcat/Km was found to be 1500 M⁻¹ s⁻¹.
